Values quoted from earlier work, collected in article PMC7369927.
Where two headings read alike, the source gives them in different places.

Key:
[1] = biological target: AT1 receptor (UniProt P30556)
[2] = biological target: AT1 receptor (UniProt P30556); remark: listed apart in the source

UniProt P30556, sequence (P30556 whole entry): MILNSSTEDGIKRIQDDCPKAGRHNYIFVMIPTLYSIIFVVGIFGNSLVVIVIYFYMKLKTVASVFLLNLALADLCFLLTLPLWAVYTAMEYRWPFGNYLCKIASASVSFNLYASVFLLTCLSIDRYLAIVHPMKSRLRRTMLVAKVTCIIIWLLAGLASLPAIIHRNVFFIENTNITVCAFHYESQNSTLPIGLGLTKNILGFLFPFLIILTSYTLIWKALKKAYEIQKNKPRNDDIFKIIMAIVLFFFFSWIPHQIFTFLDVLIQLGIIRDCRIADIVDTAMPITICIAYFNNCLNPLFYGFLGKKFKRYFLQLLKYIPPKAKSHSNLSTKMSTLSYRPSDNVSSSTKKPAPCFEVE

Row | Kd [1] [nM] | Kd [2] [nM] | Substance
1 | 2 |  | Ang II (from UniProt P01019)
2 |  | 200 | Ang-(1-7) (from UniProt P01019)
